Residue numbers refer to the chain shown, from its start. In names and notes the source's numbering stands.
T1: soluble murine CD25 (murine, UniProt P01590 22-236, limits assumed)
T1 construct: also called soluble CD25; mouse CD25
T1 sequence (looked up): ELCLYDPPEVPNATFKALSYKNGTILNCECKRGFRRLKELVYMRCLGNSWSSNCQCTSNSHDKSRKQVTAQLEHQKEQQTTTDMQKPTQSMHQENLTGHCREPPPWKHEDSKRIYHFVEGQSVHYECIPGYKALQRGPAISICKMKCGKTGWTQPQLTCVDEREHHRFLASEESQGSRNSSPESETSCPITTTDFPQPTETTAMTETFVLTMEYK

B1: E76A IL-2 (ligand)
chain: APTSSSTSSSTAEAQQQQQQQQQQQQHLEQLLMDLQELLSRMENYRNLKLPRMLTFKFYLPKQATELKDLQCLEDALGPLRHVLDLTQSKSFQLEDAENFISNIRVTVVKLKGSDNTFECQFDDESATVVDFLRRWIAFCQSIISTSPQ
notes: also called E76 mutants
B2: E76G IL-2 (ligand)
chain: B1 chain with A76G
notes: also called E76 mutants
B3: E76F mouse IL-2 (ligand)
chain: B1 chain with A76F
notes: also called E76 mutants
B4: E76R mouse IL-2 (ligand)
chain: B1 chain with A76R
notes: also called E76 mutants
B5: mIL-2 QQ 6.2-11 (ligand)
chain: APTSSSTSSSTAEAQQQQQQQQQHLEQLLMDLQELLSRMEDSRNLRLPRMLTFKFYLPEQATELKDLQCLEDELEPLRQVLDLTQSKSFQLEDAENFISNIRVTVVKLKGSDNTFECQFDDEPATVVDFLRRWIAFCQSIISTSPQ
notes: Reversion mutant
B6: mIL-2 QQ 6.2-8 (ligand)
chain: APTSSSTSSSTAEAQQQQQQQQHLEQLLMDLQELLSRMEDHRNLRLPRMLTFKFYLPKQATELEDLQCLEDELEPLRQVLDLTQSKSFQLEDAENFISNIRVTVVKLKGSDNTFECQFDDEPATVVDFLRRWIAFCQSIISTSPR
notes: Reversion mutant
B7: mIL-2 QQ 6.2-10 (ligand)
chain: B1 chain with N44D, Y45H, K49R, K62E, K68E, A76E, G78E, H82Q, S126P
notes: Reversion mutant
B8: mIL-2 QQ 6.2-13 (ligand)
chain: B1 chain with N44D, Y45H, K49R, K62E, A76E, G78E, H82Q, S126P
notes: Reversion mutant
B9: mIL-2 QQ 6.2-4 (ligand)
chain: B1 chain with N44D, Y45S, K49R, K68E, A76E, G78E, H82Q, S126P, D131G
B10: D265AFc/IL-2 (Fc fusion)
chain 1: EPRVPITQNPCPPLKECPPCAAPDLLGGPSVFIFPPKIKDVLMISLSPMVTCVVVAVSEDDPDVQISWFVNNVEVHTAQTQTHREDYNSTLRVVSALPIQHQDWMSGKEFKCKVNNRALPSPIEKTISKPRGPVRAPQVYVLPPPAEEMTKKEFSLTCMITGFLPAEIAVDWTSNGRTEQNYKNTATVLDSDGSYFMYSKLRVQKSTWERGSLFACSVVHEGLHNHLTTKTISRSLGKGGGSAPTSSSTSSSTAEAQQQQQQQQQQQQHLEQLLMDLQELLSRMENYRNLKLPRMLTFKFYLPKQATELKDLQCLEDELGPLRHVLDLTQSKSFQLEDAENFISNIRVTVVKLKGSDNTFECQFDDESATVVDFLRRWIAFCQSIISTSPQHHHHHH
chain 2: EPRVPITQNPCPPLKECPPCAAPDLLGGPSVFIFPPKIKDVLMISLSPMVTCVVVAVSEDDPDVQISWFVNNVEVHTAQTQTHREDYNSTLRVVSALPIQHQDWMSGKEFKCKVNNRALPSPIEKTISKPRGPVRAPQVYVLPPPAEEMTKKEFSLTCMITGFLPAEIAVDWTSNGRTEQNYKNTATVLDSDGSYFMYSKLRVQKSTWERGSLFACSVVHEGLHNHLTTKTISRSLGKGGGSDYKDDDDK
notes: also called D265A Fc/wt mIL-2

Biological target: T1, soluble murine CD25
Assay: yeast surface display, labeling with soluble CD25, flow cytometry
Source text: While all H82 and Q121 mutants retained CD25 binding, no CD25 binding was detected for E76 mutants (FIG. 4).

Binder | binding result
B1 | no binding (tested: 50 nM soluble CD25)
B2 | no binding (tested: 50 nM soluble CD25)
B3 | no binding (tested: 5 or 50 nM soluble CD25)
B4 | no binding (tested: 5 or 50 nM soluble CD25)

Biological target: T1, soluble murine CD25
Assay: yeast surface display, titration with soluble murine CD25

binding result | Binder
binds | B5
binds | B6
binds | B7
binds | B8
binds | B9

Biological target: T1, soluble murine CD25
Assay: method not stated (legend of the schematic of Fc/IL-2)

Kd | Binder
~50 nM | B10

Reference: US20150017120A1 (MIT, published 2015)
